The record followed here is patent US20220306759A1 (CYTOMX THERAPEUTICS, published 2022).

Assay [1] concerns the target T1, human CD71 (transferrin receptor protein 1, TfR1) on human cell lines (human, UniProt P02786 1-760).
T1 construct: whole, on cells; also called huCD71
Nature of the assay: FACS on BxPC3 cells.

Assay [2] deals with T1, human CD71 (transferrin receptor …). Nature of the assay: FACS on FaDu cells. As to the method: (§1) In this study, the binding of the antibodies of the present disclosure to the indicated cell lines were performed using a standard FACS labelling method.
Assay [3] shares this target. In words: FACS on HT29 cells. On the procedure:
as §1

Assay [4] has the same target. In words: FACS on H292 cells. On the procedure: as §1
For assay [5] the target is unchanged. Nature of the assay: FACS on H292 cells. As to the method:
In this study, the binding of the antibodies of the present disclosure to the indicated cell lines were performed using a standard FACS labelling method. […] These activatable antibodies include the light chain of the correspondingly named sequence listed above in Table C. The cells were labeled with the indicated test article at the indicated concentrations and subsequently detected with an Alexa Fluor 647 labeled goat anti-human IgG secondary antibody.
This is another data set of the same source.

Assay [6] has the same target. Nature of the assay: FACS on BxPC3 cells. As to the method:
as §1
This is another data set of the same source.

Assay [7] shares this target. Nature of the assay: FACS on DMS 79 cells. As to the method:
(§2) In this study, the binding of the antibodies and ADCs of the present disclosure to the indicated cell lines were performed using a standard FACS labelling method.

The target is the same in assay [8]. In words: FACS on HCC1806 cells. On the procedure: as §1
For assay [9] the target is unchanged. Nature of the assay: FACS on DMS 153 cells. On the procedure:
as §2

Assay [10] has the same target. Nature of the assay: FACS on MDA MB 231 cells. On the procedure:
as §1

Assay [11] has the same target. Nature of the assay: FACS on MDA MB 231 cells. As to the method:
as §1
The source holds these as a separate data set.

Assay [12] deals with T2, recombinant human CD71 protein (human, UniProt P02786 89-760).
T2 construct: also called recombinant CD71
T2 sequence (P02786 89-760 limits assumed): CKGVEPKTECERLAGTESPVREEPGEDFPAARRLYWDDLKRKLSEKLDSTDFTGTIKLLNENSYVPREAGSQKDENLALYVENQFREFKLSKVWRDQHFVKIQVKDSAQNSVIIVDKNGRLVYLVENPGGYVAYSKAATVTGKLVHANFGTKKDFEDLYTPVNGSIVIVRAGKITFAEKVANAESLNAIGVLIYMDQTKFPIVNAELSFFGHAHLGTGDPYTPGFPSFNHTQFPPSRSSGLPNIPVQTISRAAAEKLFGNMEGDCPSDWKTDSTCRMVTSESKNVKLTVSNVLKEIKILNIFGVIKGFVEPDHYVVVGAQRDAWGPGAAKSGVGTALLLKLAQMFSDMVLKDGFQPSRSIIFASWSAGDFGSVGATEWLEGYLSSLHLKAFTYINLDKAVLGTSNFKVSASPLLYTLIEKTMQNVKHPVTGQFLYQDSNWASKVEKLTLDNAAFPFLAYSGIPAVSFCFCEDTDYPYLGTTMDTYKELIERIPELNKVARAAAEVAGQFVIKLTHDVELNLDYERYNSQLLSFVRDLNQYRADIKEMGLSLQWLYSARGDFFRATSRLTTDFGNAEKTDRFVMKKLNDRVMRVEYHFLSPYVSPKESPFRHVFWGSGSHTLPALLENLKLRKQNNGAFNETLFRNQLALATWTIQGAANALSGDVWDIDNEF
Nature of the assay: ELISA, 1 µg/mL CD71 on nickel plates. (In general: In an ELISA, binding on a coated surface is turned into a signal by an enzyme label.)

Assay [13] has as its target T2, recombinant human CD71 protein. Nature of the assay: ELISA, 1 µg/mL recombinant human CD71. As to the method: (§3) The amount of bound antibody was detected by incubation and detection by goat anti-human antibody conjugated to horseradish peroxidase and Ultra TMB (Thermo Fisher Scientific) detection.
Assay [14] has the same target. In words: ELISA, 1 µg/mL CD71 on copper or nickel plates. As to the method: as §3
For assay [15] the target is unchanged. Nature of the assay: ELISA, 1 µg/mL recombinant human CD71 (second value). As to the method:
as §3

Assay [16] addresses T3, cynomolgus monkey CD71 on primary kidney epithelial cells (cynomolgus monkey, UniProt H9EXL1 1-760 (rhesus entry)).
T3 construct: whole, on cells; also called cyno CD71
In words: FACS on cynomolgus monkey primary kidney epithelial cells. On the procedure: In this study, the binding of the antibody of the present disclosure to the cells were performed using a standard FACS labelling method.

Another assay concerns the target recombinant mouse CD71 (mouse, UniProt Q62351 89-763, limits assumed). Nature of the assay: ELISA, recombinant CD71 (1 µg/mL) on plates, anti-human IgG-HRP.

T1 sequence (P02786 whole entry): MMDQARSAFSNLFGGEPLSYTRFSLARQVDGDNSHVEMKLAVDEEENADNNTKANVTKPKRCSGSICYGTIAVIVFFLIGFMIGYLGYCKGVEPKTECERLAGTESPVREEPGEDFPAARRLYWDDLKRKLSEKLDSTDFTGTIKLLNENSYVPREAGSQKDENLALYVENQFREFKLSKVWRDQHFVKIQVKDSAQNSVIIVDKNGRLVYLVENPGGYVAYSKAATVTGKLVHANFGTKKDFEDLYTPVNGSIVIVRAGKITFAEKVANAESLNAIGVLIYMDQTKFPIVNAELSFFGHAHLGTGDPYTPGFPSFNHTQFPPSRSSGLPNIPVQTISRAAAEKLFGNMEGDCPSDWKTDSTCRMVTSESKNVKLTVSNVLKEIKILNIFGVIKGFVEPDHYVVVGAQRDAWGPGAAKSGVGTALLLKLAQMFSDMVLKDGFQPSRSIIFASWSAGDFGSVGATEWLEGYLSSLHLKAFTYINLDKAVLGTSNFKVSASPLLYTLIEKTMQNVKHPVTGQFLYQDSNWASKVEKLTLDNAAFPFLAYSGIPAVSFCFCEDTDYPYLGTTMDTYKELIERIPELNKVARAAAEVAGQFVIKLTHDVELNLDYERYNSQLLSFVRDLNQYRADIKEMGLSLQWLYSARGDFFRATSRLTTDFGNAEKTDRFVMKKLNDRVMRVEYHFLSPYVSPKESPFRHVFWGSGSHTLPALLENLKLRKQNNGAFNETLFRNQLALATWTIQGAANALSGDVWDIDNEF
recombinant mouse CD71, sequence (Q62351 89-763 limits assumed): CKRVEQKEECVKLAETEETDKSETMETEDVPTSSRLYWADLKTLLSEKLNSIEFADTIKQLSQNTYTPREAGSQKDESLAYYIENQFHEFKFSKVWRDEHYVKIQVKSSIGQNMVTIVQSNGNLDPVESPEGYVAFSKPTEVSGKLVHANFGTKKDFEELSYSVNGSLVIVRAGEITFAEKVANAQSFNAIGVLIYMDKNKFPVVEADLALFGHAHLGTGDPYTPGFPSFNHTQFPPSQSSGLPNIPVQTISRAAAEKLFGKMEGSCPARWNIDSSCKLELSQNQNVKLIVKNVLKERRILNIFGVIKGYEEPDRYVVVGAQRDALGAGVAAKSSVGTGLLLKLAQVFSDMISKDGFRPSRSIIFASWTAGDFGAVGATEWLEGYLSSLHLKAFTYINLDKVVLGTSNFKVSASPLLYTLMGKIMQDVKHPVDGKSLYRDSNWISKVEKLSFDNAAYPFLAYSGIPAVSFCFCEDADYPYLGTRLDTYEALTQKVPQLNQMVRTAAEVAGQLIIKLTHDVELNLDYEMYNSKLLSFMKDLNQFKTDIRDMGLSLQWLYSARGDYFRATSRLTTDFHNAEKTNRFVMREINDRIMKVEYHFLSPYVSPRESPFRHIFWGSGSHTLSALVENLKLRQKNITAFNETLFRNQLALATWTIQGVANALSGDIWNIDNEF
T3 sequence (chain, as listed by the source): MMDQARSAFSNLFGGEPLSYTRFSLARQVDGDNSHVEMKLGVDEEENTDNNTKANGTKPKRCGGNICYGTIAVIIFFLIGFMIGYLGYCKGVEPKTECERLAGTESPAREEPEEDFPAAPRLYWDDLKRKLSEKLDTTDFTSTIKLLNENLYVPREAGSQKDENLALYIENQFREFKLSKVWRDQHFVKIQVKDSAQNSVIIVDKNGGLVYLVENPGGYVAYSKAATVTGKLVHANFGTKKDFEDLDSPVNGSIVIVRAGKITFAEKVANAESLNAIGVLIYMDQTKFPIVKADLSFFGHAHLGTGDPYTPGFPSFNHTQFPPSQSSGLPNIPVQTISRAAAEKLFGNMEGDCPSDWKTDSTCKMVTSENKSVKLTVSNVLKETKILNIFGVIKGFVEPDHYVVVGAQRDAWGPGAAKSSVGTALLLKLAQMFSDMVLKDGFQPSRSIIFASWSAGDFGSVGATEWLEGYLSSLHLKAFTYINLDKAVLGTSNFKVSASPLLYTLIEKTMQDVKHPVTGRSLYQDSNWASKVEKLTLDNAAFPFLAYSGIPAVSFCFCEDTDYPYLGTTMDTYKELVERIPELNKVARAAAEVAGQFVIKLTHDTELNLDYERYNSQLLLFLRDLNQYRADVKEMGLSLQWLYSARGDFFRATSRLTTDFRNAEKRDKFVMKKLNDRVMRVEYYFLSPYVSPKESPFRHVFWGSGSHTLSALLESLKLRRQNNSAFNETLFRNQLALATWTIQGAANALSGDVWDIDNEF

B1: Ab21.12 LcB:HcC (antibody, human IgG1, kappa)
heavy: not shown
light: DIQMTQSPSSLSASVGDRVTITCSASSSVYYMYWFQQKPGKAPKLWIYSTSNLASGVPSRFSGSGSGTDYTLTISSMQPEDFATYYCQQRRNYPYTFGQGTKLEIKRTVAAPSVFIFPPSDEQLKSGTASVVCLLNNFYPREAKVQWKVDNALQSGNSQESVTEQDSKDSTYSLSSTLTLSKADYEKHKVYACEVTHQGLSSPVTKSFNRGEC
Consider B1, for which the Kd in [1] was ~3 nM; in [2], 0.39 nM; in [3] it was 0.51 nM; in assay [4] it was 1.53 nM; in assay [5], 0.441 nM; in assay [6] it was 0.81 nM. The Kd is 0.898 nM in assay [7]; 5 nM in assay [8]; 4.47 nM in assay [9]; 0.84 nM in assay [10]; 1.03 nM in [11]; 0.3 nM in assay [12]. Besides, the Kd in assay [13] was 0.255 nM; in [14] it was 0.14 nM; in assay [15], 0.162 nM; in assay [16], ~3 nM. Further, the “Bmax (MFI)” value in assay [4] is 1820 MFI. In the assay with recombinant mouse CD71, the binding result was “no binding”.

By Kd is commonly meant the constant that tells how readily two partners part at equilibrium.
